From the Immune Epitope Database (IEDB)

How the values were obtained:
Assay in all cases: IEDB peptide-MHC binding, purified MHC/competitive/fluorescence; filed as Kd, often an IC50 or EC50 that approximates it; ≥ and ≤ were set here for values at or beyond the usual limits of such assays
Details in all cases: source organism: Entamoeba histolytica HM-1:IMSS
HLA-B*14:02 = target: HLA-B*14:02
HLA-A*30:02 = target: HLA-A*30:02
HLA-B*46:01 = target: HLA-B*46:01
HLA-A*02:19 = target: HLA-A*02:19
HLA-A*01:01 = target: HLA-A*01:01
HLA-A*02:12 = target: HLA-A*02:12
HLA-B*15:01 = target: HLA-B*15:01
HLA-A*30:01 = target: HLA-A*30:01

EVIRATYPS
Kd (HLA-B*14:02): ≥ 5 µM | Kd (HLA-A*30:02): ≥ 5 µM | Kd (HLA-B*46:01): ≥ 20 µM | Kd (HLA-A*02:19): ≥ 20 µM | Kd (HLA-A*01:01): ≥ 5 µM | Kd (HLA-A*02:12): ≥ 20 µM | Kd (HLA-B*15:01): ≥ 20 µM | Kd (HLA-A*30:01): ≥ 5 µM
